T1: ovine FAP (oFAP) extracellular domain (ECD) (sheep)
T1 construct: also called oFAP-ECD
T1 chain: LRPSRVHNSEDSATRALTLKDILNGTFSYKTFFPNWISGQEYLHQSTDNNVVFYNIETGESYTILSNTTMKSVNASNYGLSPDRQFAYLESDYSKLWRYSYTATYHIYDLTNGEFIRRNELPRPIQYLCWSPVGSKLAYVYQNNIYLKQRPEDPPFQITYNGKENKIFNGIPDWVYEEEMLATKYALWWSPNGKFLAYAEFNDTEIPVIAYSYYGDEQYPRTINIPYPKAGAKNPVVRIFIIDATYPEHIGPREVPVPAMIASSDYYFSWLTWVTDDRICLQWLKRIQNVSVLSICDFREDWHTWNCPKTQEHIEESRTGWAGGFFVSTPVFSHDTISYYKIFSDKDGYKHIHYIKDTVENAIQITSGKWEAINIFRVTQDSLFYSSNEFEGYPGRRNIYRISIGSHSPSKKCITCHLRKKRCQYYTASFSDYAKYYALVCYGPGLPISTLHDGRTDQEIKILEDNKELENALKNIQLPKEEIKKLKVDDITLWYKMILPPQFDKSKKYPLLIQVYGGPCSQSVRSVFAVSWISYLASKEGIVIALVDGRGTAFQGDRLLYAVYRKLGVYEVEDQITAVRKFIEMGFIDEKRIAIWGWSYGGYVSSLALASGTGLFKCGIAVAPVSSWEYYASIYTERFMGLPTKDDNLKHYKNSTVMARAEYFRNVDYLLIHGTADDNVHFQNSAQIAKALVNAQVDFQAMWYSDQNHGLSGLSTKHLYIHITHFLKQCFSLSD

T2: canine FAP (caFAP) extracellular domain (ECD) (domestic dog (Canis familiaris))
T2 construct: also called caFAP-ECD
T2 chain: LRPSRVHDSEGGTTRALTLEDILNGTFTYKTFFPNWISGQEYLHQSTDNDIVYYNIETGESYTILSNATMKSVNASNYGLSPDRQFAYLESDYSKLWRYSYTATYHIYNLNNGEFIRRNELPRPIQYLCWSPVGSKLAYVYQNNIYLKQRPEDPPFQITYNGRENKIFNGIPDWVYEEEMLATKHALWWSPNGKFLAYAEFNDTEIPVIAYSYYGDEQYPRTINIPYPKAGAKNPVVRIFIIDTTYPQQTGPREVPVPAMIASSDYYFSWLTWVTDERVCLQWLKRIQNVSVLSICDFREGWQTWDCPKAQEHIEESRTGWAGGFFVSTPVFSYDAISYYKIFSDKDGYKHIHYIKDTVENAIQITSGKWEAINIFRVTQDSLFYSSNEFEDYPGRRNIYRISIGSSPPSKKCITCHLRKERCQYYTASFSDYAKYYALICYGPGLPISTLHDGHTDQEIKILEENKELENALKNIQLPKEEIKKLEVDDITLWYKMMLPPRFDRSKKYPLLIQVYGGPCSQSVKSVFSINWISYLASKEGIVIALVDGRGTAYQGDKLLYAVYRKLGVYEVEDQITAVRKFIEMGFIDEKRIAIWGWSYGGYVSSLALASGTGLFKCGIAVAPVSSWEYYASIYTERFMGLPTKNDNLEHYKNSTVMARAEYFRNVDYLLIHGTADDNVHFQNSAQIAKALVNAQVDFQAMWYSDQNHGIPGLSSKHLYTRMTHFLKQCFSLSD

B1: anti-hen egg lysozyme antibody KSF in IgG1 format (antibody, V domains shown)
VH: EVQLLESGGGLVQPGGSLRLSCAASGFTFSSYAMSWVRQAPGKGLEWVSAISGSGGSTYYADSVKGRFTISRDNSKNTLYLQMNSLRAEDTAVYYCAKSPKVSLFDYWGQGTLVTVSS
VL: SSELTQDPAVSVALGQTVRITCQGDSLRSYYASWYQQKPGQAPVLVIYGKNNRPSGIPDRFSGSSSGNTASLTITGAQAEDEADYYCQSSPLNRLAVVFGGGTKLTVLG
notes: Negative control; It was conjugated to FITC in the immunofluorescence and ex vivo experiments; also called KSF IgG1; KSF(IgG1)
B2: anti-FAP antibody 7NP2 in IgG1 format (antibody, V domains shown)
VH: EVQLLESGGGLVQPGGSLRLSCAASGFTFSSYAMSWVRQAPGKGLEWVSAIGSVGGPTYYADSVKGRFTISRDNSKNTLYLQMNSLRAEDTAVYYCAKRLAWFDYWGQGTLVTVSS
VL: EIVLTQSPGTLSLSPGERATLSCRASQSVSSSYLAWYQQKPGQAPRLLIYGASSRATGIPDRFSGSGSGTDFTLTISRLEPEDFAVYYCQQSGKGPLTFGQGTKVEIKR
notes: also called 7NP2 IgG1; 7NP2(IgG1)

Key:
[1] = target: T1, ovine FAP (oFAP) extracellular domain …; test: ELISA, 120 nM oFAP-ECD coated on Maxisorp plates
Experimental: (§1) Cross-reactivity of the anti-hFAP antibodies with oFAP-ECD and pFAP-ECD was tested using ELISA. 120 nM of oFAP-ECD or pFAP-ECD was coated on Maxisorp plates overnight at 4° C. […] Specifically, the C5 antibody was employed in IgG2a format, while all other antibodies, including the 7NP2 antibody, were in IgG1 format. The differences between the IgG2a and IgG1 formats are not expected to affect binding to FAP. After 3 washes with PBS, binding of the antibodies to oFAP-ECD and pFAP-ECD was detected using an anti-human or anti-murine antibody HRP conjugate.

[2] = target: T2, canine FAP (caFAP) extracellular domain …; test: ELISA, 120 nM caFAP-ECD coated, antibody at 5 ug/mL
Experimental: as §1, with “caFAP-ECD” for “oFAP-ECD and pFAP-ECD”, “caFAP-ECD” for “oFAP-ECD or pFAP-ECD”

| Binder | binding result [1] | binding result [2] |
| --- | --- | --- |
| B1 | no binding (tested: 5 µg/mL) | – |
| B2 | – | binds |

From patent publication US20240199762A1 (PHILOGEN S P A, published 2024)
